In patent US12060408B2, “Screening assays, modulators and modulation of activation of Receptor for Advanced Glycation End-products (RAGE)” (Monash University, priority 2017, dated 2024):
Entries after “also recorded” stand apart in the source; their conditions may differ.

Experiments:
Format in all cases: cell-based
RAGE [1] = target: T1, RAGE (Homo sapiens, UniProt Q15109); assay: S100A8/A9-induced pro-inflammatory signalling in RAGE-AT1R-CHO cells; settings: 1 hour pre-treatment, 1 μg/mL, S100A8/A9 5 ng/ml, FIG. 6A
T1 construct: RAGE-AT1R—CHO cells expressing both full length RAGE and AT1R; expressed in transfected cells
T1 sequence (Q15109 23-404): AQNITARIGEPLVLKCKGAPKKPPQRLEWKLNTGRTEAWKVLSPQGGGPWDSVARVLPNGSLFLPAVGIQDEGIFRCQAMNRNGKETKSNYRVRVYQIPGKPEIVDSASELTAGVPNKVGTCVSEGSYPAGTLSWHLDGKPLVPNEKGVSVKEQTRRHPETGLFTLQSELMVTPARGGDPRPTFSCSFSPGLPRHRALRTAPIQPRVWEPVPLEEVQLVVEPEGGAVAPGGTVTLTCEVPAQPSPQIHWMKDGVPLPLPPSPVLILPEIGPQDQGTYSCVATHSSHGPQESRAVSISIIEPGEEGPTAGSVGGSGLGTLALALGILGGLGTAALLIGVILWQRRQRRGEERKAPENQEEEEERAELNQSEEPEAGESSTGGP
Procedure: (§1) Additional experiments were conducted in the presence and absence of a 1 hour pre-treatment with a neutralizing antibody to RAGE (RAGEab; R&D systems; 1 μg/mL) or soluble RAGE22-331 (sRAGE; 1 μg/mL) prior to exposure to 1 μM Ang II or 5 ng/ml of the RAGE ligand, S100A8/A9.
(§2) To confirm the applicability of inhibition strategies to human tissues, additional experiments were undertaken in primary aortic endothelial cells from humans (Lonza). HAECs were grown in EGM-2 media. In each case cells were treated with mCherry-TAT (control), TAT-mCherry-RAGE362-404 (wild type), or TAT-mCherry-S391A-RAGE362-404 at a dose of 0.4 ng/ml for 30 min prior to treatment with either Ang II (1 μM), or S100A8/A9 (2 μg/ml; R&D systems) for 2h.

RAGE [2] = target: T1, RAGE; assay: Ang II-induced pro-inflammatory signalling (p65-NFκB expression) in AT1R-CHO / RAGE-AT1R-CHO cells; settings: RAGE-AT1R-CHO cells; 1 hour pre-treatment, 1 μg/mL; 1 μM Ang II; FIG. 6A
RAGE [3] = target: T2, RAGE (Mus musculus, UniProt Q62151); assay: Ang II-induced pro-inflammatory signalling in PMAEC; settings: 1 hour pre-treatment, 1 μg/mL, 1 μM Ang II, FIG. 6B
T2 construct: in murine SVEC that are endogenously replete in RAGE expression; host or cells: Svec4-10 mouse endothelial cells
T2 sequence (Q62151 23-402): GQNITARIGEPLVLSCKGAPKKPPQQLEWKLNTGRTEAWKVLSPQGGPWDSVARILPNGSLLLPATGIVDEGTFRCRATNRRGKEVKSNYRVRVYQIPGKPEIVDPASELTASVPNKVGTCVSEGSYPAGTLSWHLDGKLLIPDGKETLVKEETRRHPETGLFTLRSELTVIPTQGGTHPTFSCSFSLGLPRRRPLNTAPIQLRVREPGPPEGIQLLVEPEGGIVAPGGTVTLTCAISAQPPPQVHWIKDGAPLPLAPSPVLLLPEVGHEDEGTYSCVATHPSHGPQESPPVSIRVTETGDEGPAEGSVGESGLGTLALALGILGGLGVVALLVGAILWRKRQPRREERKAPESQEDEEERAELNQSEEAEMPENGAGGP
Procedure: as §1
(§3) Additional experiments were conducted in the presence and absence of a 1 hour pre-treatment with a pseudo-substrate for PKCζ (iPKCζ, 5 μM, Tocris).
as §2

RAGE [4] = target: T2, RAGE; assay: S100A8/A9-induced pro-inflammatory signalling in PMAEC; settings: 1 hour pre-treatment, 1 μg/mL, S100A8/A9 5 ng/ml, FIG. 6C
Procedure: as §1, §3, §2

CCR5 = target: T3, CCR5 (Homo sapiens, UniProt P51681); assay: Receptor-HIT BRET, β-arrestin2/Venus with RAGE/Rluc8 and CCR5
T3 construct: expressed in transfected cells; host or cells: HEK293FT, transient
T3 sequence (P51681 whole entry): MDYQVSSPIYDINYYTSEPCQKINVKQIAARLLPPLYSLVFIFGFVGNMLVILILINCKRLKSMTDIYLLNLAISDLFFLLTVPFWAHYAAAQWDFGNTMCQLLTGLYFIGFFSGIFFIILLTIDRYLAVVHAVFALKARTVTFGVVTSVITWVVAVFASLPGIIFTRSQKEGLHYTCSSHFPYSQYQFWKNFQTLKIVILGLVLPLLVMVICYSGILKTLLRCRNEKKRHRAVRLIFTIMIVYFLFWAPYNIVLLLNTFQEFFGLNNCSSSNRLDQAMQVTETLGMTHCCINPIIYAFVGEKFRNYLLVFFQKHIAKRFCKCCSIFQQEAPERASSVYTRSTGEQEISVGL
T3 sequence (P32121 whole entry partner): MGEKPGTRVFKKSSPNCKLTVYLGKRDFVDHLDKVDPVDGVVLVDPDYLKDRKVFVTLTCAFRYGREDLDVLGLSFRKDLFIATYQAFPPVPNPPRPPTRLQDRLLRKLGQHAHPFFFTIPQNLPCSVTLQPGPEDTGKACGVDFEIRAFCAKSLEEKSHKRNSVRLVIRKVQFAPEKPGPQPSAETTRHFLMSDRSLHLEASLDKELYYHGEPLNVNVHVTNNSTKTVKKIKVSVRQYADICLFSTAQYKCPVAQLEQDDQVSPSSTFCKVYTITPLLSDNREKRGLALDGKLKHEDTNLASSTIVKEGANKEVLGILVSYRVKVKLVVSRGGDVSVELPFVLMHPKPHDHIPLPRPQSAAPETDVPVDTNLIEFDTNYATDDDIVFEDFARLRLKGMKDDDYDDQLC
Text: Bioluminescence Resonance Energy Transfer (BRET)
BRET is an established technology for studying protein-protein proximity in live cells, particularly involving GPCRs (Pfleger and Eidne, 2006). One protein of interest was linked to a bioluminescent donor enzyme, Rluc8, a variant of Renilla luciferase, and a second linked to an acceptor fluorophore, Venus, a variant of green fluorescent protein. If in close proximity (<10 nm), energy resulting from the rapid oxidation of a cell-permeable coelenterazine substrate by the donor can transfer to the acceptor, which in turn fluoresces at a longer characteristic wavelength.
Plasmids were transiently co-expressed in human embryonic kidney (HEK) 293FT cells and BRET measurements taken at 37° C. using a POLARstar Omega or LUMIstar plate reader (BMG Labtech, Mornington, Victoria, Australia) with 460-490 nm (‘donor emission’) and 520-550 nm (‘acceptor emission’) filters, or a VICTOR Light plate reader (Perkin Elmer, Glen Waverley, Victoria, Australia) with 400-475 nm (‘donor emission’) and 520-540 nm (‘acceptor emission’) filters, or a CLARIOstar plate reader (BMG Labtech, Mornington, Victoria, Australia) with 420-480 nm (‘donor emission’) and 520-620 nm (‘acceptor emission’) filters. […]
For BRET kinetic assays, the final pre-treatment reading is presented at the zero time point (time of ligand/vehicle addition). […]

Row | RAGE ligand-dependent induction of pro-inflammatory signalling by S100A8/A9 (RAGE [1]) | RAGE ligand-independent induction of pro-inflammatory signalling by Ang II (RAGE [2]) | Ang II-AT1R-dependent induction of pro-inflammatory signalling (RAGE [3]) | pro-inflammatory signalling induced by the RAGE ligand S100A8/A9 (RAGE [4]) | recruitment of βarrestin2/Venus to CCR5/Rluc8 (CCR5; control) | Molecule | recruitment of β-arrestin2/Venus proximal to RAGE/Rluc8 (CCR5; in the presence of CCR5)
1 | block | do not affect | does not attenuate | able to attenuate | – | sRAGE22-331: soluble RAGE decoy with ligand-binding affinity; extracellular ligand-binding V-C1-C2 domains of RAGE | –
2 | – | – | – | – | recruitment | CCL4: chemokine ligand used to activate CCR5 (protein) APMGSDPPTACCFSYTARKLPRNFVVDYYETSSLCSQPAVVFQTKRSKQVCADPSESWVQEYVYDLELN | particularly weak recruitment; also recorded: Lack of
